Reference: article PMC5505961

Target: recombinant LHCII (major light-harvesting complex), Lhcb1*2 (AB80) derivative with N-terminal Cys-Cys-Cys motif, C79S and C-terminal His6 tag (pea (Pisum sativum))
Test: sucrose density gradient ultracentrifugation; reconstituted monomers trimerized by His6 tag on Ni2+-sepharose columns, then sucrose density gradient (500 mM sucrose, 10 mM Tris-HCl pH 7.5, 5 mM TCEP, 0.05% (w/v) Triton X-100); trimer band collected and checked by CD (negative peak at 474 nm)

stoichiometry N: 3
Substance: recombinant LHCII (major light-harvesting complex), Lhcb1*2 (AB80) derivative with N-terminal Cys-Cys-Cys motif, C79S and C-terminal His6 tag (natural protein)
